Data published in paper PMC5715906 (The Journal of General Physiology, 2017).

Biological target: the molecule itself
Assay: crystal structure

B1: GLIC E−2′I + I9′A double mutant (receptor)
chain: QDMVSPPPPIADEPLTVNTGIYLIECYSLDDKAETFKVNAFLSLSWKDRRLAFDPVRSGVRVKTYEPEAIWIPEIRFVNVENARDADVVDISVSPDGTVQYLERFSARVLSPLDFRRYPFDSQTLHIYLIVRSVDTRNIVLAVDLEKVGKNDDVFLTGWDIESFTAVVKPANFALEDRLESKLDYQLRISRQYFSYIPNIILPMLFILFISWTAFWSTSYIANVTLVVSTLAAHIAFNILVETNLPKTPYMTYTGAIIFMIYLFYFVAVIEVTVQHYLKVESQPARAASITRASRIAFPVVFLLANIILAFLFFGF
- stoichiometry N: 5
